Test results from paper PMC12638309.

T1: Mam2, fungal peptide-sensing GPCR (P-factor) (UniProt Q00619)
T1 sequence: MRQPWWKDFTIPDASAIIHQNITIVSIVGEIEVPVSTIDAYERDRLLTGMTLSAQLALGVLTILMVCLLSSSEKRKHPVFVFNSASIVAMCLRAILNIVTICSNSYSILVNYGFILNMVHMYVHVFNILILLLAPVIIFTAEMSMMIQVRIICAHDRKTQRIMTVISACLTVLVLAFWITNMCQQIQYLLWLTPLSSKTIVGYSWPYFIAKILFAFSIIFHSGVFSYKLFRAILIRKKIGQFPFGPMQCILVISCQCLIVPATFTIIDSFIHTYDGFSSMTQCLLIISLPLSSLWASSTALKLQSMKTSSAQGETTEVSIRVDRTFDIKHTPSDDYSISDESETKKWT

T2: Ste2, native ɑ-factor pheromone-sensing mating GPCR (S. cerevisiae) (UniProt D6VTK4)
T2 sequence: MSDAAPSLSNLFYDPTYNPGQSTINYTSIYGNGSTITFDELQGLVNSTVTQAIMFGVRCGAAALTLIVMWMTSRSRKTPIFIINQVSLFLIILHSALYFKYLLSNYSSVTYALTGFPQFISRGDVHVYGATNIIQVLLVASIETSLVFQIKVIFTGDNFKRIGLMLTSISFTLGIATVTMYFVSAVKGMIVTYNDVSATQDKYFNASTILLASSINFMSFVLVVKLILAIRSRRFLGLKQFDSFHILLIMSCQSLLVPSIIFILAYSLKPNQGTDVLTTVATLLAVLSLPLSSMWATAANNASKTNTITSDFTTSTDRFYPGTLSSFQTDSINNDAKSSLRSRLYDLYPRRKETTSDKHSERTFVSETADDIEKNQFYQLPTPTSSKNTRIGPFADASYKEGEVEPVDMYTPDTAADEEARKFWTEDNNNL


How the values were obtained:
[1] = target: T1, Mam2, fungal peptide-sensing GPCR (P-factor)
[2] = target: T2, Ste2, native ɑ-factor pheromone-sensing mating GPCR (S. cerevisiae)
[3] = target: T2, Ste2, native ɑ-factor pheromone-sensing mating GPCR (S. cerevisiae); remark: listed apart in the source

fold change of surface-displayed CD19 (P FUS1-CD19 output of the pheromone response pathway, flow cytometry) in yeast expressing Mam2 (DIX60), 0, 1 and 10 µM P-factor, 20 h, pH 5 [1]	fold up-regulation of surface-displayed CD19 from P FIG1 in Ste2 yeast, 0-100 µM ɑ-factor, 20 h [2]	fold up-regulation of surface-displayed CD19 from P FUS1 in Ste2 yeast, 0-100 µM ɑ-factor, 20 h [2]	fold up-regulation of surface-displayed CD19 from P MFA2 in Ste2 yeast, 0-100 µM ɑ-factor, 20 h [2]	fold up-regulation of surface-displayed CD19 from P TDH3 (pheromone response pathway boost) in Ste2 yeast, 0-100 µM ɑ-factor, 20 h [2]	fold change of surface-displayed CD19 (P FUS1-CD19 output of the pheromone response pathway, flow cytometry) in yeast expressing Ste2 (DIX45), 0, 0.01 and 1 µM ɑ-factor, 20 h, pH 5 [3]	Binder
249 fold	–	–	–	–	–	TYADFLRAYQSWNTFVNPDRPNL [P-factor]
–	630 fold	774 fold	323 fold	3.1 fold	312 fold	WHWLQLKPGQPMY [ɑ-factor]
